# Experimental data: patent publication US11733246B2, “Compositions, imaging, and therapeutic methods targeting folate receptor 1 (FOLR1)” (Indi Molecular, Inc., priority 2020, dated 2023)
# Where two headings read alike, the source gives them in different places. Numbered stars: 1 amine (or outer) side, 2 acyl side, 3 side chain; on linkers, the order of the positions; unused ones are H or OH. Bridge positions count the residues as written; N and C are the ends. Square brackets hold non-standard residues; d marks the D form. Triazole bridges read from a SMILES are 1,4-linked. Peptide text beside a SMILES is read from it. * marks the point of attachment. DOTA = O=C(O)CN1CCN(CC(=O)O)CCN(CC(=O)*)CCN(CC(=O)O)CC1; Pteroyl = Nc1nc2ncc(CNc3ccc(C(=O)*)cc3)nc2c(=O)[nH]1; Butanoyl(4-(4-MePh)) = Cc1ccc(CCCC(=O)*)cc1; Lys(N3) = [N-]=[N+]=NCCCC[C@H](N)C(=O)O; γGlu = O=C(O)[C@H](CCC(=O)[*:2])N[*:1]; AEEEA = NCCOCCOCCOCC(=O)O; Pra = C#CC[C@H](N)C(=O)O
# Tests used:
# [1] = Plasma protein binding (equilibrium dialysis), human; assay type: in vitro ADME
# Summary of the method: (§1)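 Equilibrium dialysis across 12-14 kDa cellulose membranes; test articles at 2 μM in mouse or human plasma adjusted to pH 7.0-8.0, in triplicate. Dialysed 4 hours at 37° C. with slow shaking; both sides quantified by LC-MS/MS to give fraction bound.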
# [2] = mouse, plasma, Plasma Stability (t 1/2)
# Description: (§2) Plasma was thawed in a 37° C. water bath. Residual clots were removed via centrifugation at 4000 rpm for 5 minutes. The pH of the plasma was adjusted to 7.4 if required. Test articles were diluted to 100 μM by diluting a 1 mM working solution (in DMSO) with 45% methanol in water. To 98 μL of plasma was added 2 μL of the 100 μM solution, resulting in 2 μM final concentration of the test article. Samples were incubated at 37° C. in a water bath. At the indicated time points (0, 10, 30, 60, 120 minutes) 100 μL of 4% H3PO4 was added followed by 800 μL of stop solution (200 ng/mL tolbutamide and 200 ng/mL labetalol in 100% acetonitrile). The samples were centrifuged and the plasma protein-free supernatant (100 μL) was subjected to LC-MS/MS analysis.
# [3] = target: human recombinant NEP (Homo sapiens, UniProt P08473); assay type: biochemical
# Summary of the method: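 Peptide bearing GFK linker (10 μM) incubated with recombinant human NEP (10, 1, 0.1, 0.01 nM or none) at 37° C. for 1 h. Cleavage tracked by MALDI-MS, cleaved adduct identified by mass, and by HPLC as parent-peak depletion with new-peak appearance; non-cleavable PEG3 linker assayed for specificity.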
# [4] = human, plasma, Plasma Stability (t 1/2)
# Description: as §2
# [5] = Plasma protein binding (equilibrium dialysis), mouse; assay type: in vitro ADME, CD-1 mouse
# Summary of the method: as §1
# Sequence of human recombinant NEP (P08473 whole entry): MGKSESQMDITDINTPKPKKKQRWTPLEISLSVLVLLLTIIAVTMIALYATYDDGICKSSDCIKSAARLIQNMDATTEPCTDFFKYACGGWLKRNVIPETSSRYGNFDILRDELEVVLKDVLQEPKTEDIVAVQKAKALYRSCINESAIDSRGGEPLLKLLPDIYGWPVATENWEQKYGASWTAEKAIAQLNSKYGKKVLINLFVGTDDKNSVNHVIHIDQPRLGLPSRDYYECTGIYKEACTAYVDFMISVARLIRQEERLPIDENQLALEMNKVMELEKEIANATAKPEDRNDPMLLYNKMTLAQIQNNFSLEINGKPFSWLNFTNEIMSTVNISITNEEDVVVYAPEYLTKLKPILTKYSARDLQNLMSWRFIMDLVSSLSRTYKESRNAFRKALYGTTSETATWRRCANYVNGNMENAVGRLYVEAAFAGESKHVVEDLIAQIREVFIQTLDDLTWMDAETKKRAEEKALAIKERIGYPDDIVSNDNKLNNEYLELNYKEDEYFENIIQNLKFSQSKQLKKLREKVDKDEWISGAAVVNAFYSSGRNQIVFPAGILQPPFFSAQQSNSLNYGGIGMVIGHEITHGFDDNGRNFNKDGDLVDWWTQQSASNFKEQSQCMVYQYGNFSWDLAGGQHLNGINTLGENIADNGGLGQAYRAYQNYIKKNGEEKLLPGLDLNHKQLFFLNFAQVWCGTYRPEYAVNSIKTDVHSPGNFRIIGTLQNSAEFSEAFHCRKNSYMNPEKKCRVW
smiles,measurement,setting,value
"Cc1ccc(CCCC(=O)NCCCC[C@H](NC(=O)COCCOCCOCCNC(=O)[C@@H]2CCCCn3cc(nn3)C[C@H](NC(=O)CC[C@H](NC(=O)c3ccc(NCc4cnc5nc(N)[nH]c(=O)c5n4)cc3)C(=O)O)C(=O)N[C@H](Cc3c[nH]cn3)C(=O)N[C@H](CO)C(=O)N[C@H](Cc3c[nH]cn3)C(=O)N[C@H]([C@H](C)O)C(=O)N[C@H](C)C(=O)N2)C(=O)N[C@@H](CCCCNC(=O)CN2CCN(CC(=O)O)CCN(CC(=O)O)CCN(CC(=O)O)CC2)C(N)=O)cc1 [compound #2809, Fol-hshta-PEG3-Lys(4-MPBA)-Lys(DOTA)] ({Pteroyl-γGlu}-[Pra][dH][dS][dH][dT][dA][Lys(N3)][AEEEA]K(Butanoyl(4-(4-MePh)))K(DOTA)-NH2; triazole 1-7)",recovery,[1],85.8%
same,fraction unbound,"[1]; human, plasma",0.167
same,half-life,[2],> 4.82 h
same,NEP-mediated cleavage (site / susceptibility),[3],unchanged
same,in vitro Assay Data (NEP assay),[3],resistant to NEP
same,half-life,[4],> 4.82 h
same,recovery,[5],108%
same,fraction unbound,"[5]; mouse, plasma",0.0791
